Measured values taken from patent publication US20210403567A1, “METHODS OF TREATING CERVICAL CANCER BY ADMINISTERING A PD-1 INHIBITOR” (priority 2020, published 2021).
Where “and” joins values, the source holds several entries; their conditions need not be identical. Equal values may be shown once. Read-outs that look alike come from different tables or passages of the source.

Key:
[1] = Phase I expansion cohorts: safety, treatment-emergent adverse events (NCI CTCAE 4.03); type: in vivo, human
Description: (§1) The combination therapy cohort enrolled patients for whom palliative hfRT was planned to a lesion that was causing some signs or symptoms. The radiated lesion was not followed as a target lesion for response assessments.
(§2) Assessments: Tumor histology was assessed per local pathology reports of tumor samples obtained at any time prior to study enrollment. […] Extensive safety evaluations were performed during screening and on Day 1 of each subsequent treatment cycle throughout the study. Routine safety evaluations were performed at each cemiplimab dosing visit. Tumor response assessments were performed by investigators, per RECIST 1.1, at the end of each 8-week treatment cycle. In combination therapy cohorts, the lesions selected for hfRT were not included in RECIST 1.1 assessments.
(§3) Statistical analysis of clinical data: The safety summaries and analyses were performed on the safety analysis set. Data were summarized using descriptive statistics, along with two-sided 95% confidence interval (CI), by dose cohort. Continuous variables were summarized with mean, median, standard deviation, minimum, and maximum. Categorical variables were summarized with frequency and percentage. Kaplan-Meier analysis was performed for progression-free survival (PFS) and OS.

cervical cancer [2] = settings: durable responses; cited from earlier work
cervical cancer [3] = experiment: Dose escalation cohort of the cemiplimab first-in-human study, cervical cancer patients; type: in vivo; settings: one cervical squamous patient, earlier response to cemiplimab+hfRT in dose escalation
Source text: (Papadopoulos et al., Clin Cancer Res (December 2019) Epub). The sum total equates to a 17% objective response rate among cervical cancer patients enrolled in the phase I study (4/23 combined; 2/3 responding patients in dose escalation plus 2/20 in expansion cohorts). All responders had squamous histology.

[4] = test system: recurrent or metastatic cervical cancer that has progressed after first-line platinum-based treatment
[5] = test system: recurrent or metastatic cervical cancer; experiment: Phase I expansion cohorts: cemiplimab 3 mg/kg IV Q2W alone or plus hfRT, tumor response (RECIST 1.1), PFS, OS; type: in vivo, human
Source text: as §1
Additional eligibility criteria included an Eastern Cooperative Oncology Group performance status score of 0 or 1, and adequate organ function. Patients were required to have at least one measurable lesion per Response Evaluation Criteria in Solid Tumors (RECIST) version 1.1. (Eisenhauer et al., Eur J Cancer 45 (2009) 228-47). In the combination therapy cohort, the measureable lesion(s) were in addition to the irradiated lesion.
as §2, §3

[6] = Grade 3-5, cemiplimab N=300, chemotherapy N=290
[7] = any grade, cemiplimab N=300, chemotherapy N=290
[8] = cemiplimab vs Gemcitabine (n = 108 vs 121)
[9] = cemiplimab vs Irinotecan (n = 26 vs 19)
[10] = cemiplimab vs Pemetrexed (n = 119 vs […])
[11] = cemiplimab vs Topotecan (n = 20 vs 21)
[12] = cemiplimab vs Vinorelbine (n = 31 vs 32)
[13] = subgroup with IC chemotherapy selected prior to randomisation: Gemcitabine (n = 108 vs 121)
[14] = subgroup with IC chemotherapy selected prior to randomisation: Irinotecan (n = 26 vs 19)
[15] = investigator assessment, n = 10 per cohort

cemiplimab
Treatment-related TEAEs (Grade 3) ([1]; 1/10): 10%
Treatment-related TEAE: Any ([1]; Grade ≥ 3, n = 10 per cohort): 1 n (%)
Treatment-related TEAE: Diarrhea ([1]; Grade ≥ 3, n = 10 per cohort): 0 n (%)
Treatment-related TEAE: Fatigue ([1]; Grade ≥ 3, n = 10 per cohort): 1 n (%)
Treatment-related TEAE: Hyponatremia ([1]; Grade ≥ 3, n = 10 per cohort): 0 n (%)
Treatment-related TEAE: Hypothyroidism ([1]; Grade ≥ 3, n = 10 per cohort): 0 n (%)
Treatment-related TEAE: Myalgia ([1]; Grade ≥ 3, n = 10 per cohort): 1 n (%)
Treatment-related TEAE: Pneumonitis ([1]; Grade ≥ 3, n = 10 per cohort): 0 n (%)
Treatment-related TEAE: Any ([1]; any grade, n = 10 per cohort): 7 n (%)
Treatment-related TEAE: Diarrhea ([1]; any grade, n = 10 per cohort): 2 n (%)
Treatment-related TEAE: Fatigue ([1]; any grade, n = 10 per cohort): 3 n (%)
Treatment-related TEAE: Hyponatremia ([1]; any grade, n = 10 per cohort): 1 n (%)
Treatment-related TEAE: Hypothyroidism ([1]; any grade, n = 10 per cohort): 2 n (%)
Treatment-related TEAE: Myalgia ([1]; any grade, n = 10 per cohort): 1 n (%)
Treatment-related TEAE: Pneumonitis ([1]; any grade, n = 10 per cohort): 1 n (%)
TEAE fatigue ([1]; both cohorts combined (5/20)): 25%
TEAE hypokalemia ([1]; both cohorts combined (5/20)): 25%
TEAE diarrhea ([1]; both cohorts combined (7/20)): 35%
patients who experienced grade TEAEs ([1]; four patients of 10 per cohort): 40.0%
TEAEs of any grade, regardless of treatment attribution ([1]; n = 10 per cohort): 9 patients
discontinued treatment due to TEAEs ([1]; n = 10 per cohort): No patients
responding patients in dose escalation (cervical cancer [2]): 2/3
response to retreatment after disease recurrence (cervical cancer [3]): complete response
Sponsor-identified immune-related AEs: Led to death [6]: 0 n (%)
Treatment-emergent AEs that led to death [6]: 5 (1.7) n (%)
Treatment-related AEs: Led to death [6]: 0 n (%)
Number of patients with any TEAE resulting in death [7]: 5 n (%) and 5 (1.7) n (%)
Sponsor-identified immune-related AEs: Led to death [7]: 0 n (%)
Treatment-related AEs: Led to death [7]: 0 n (%)
AEs observed, patients (in vivo): 88%
Grade 3 or higher AEs, patients (in vivo): 45%
Number of NCI grade 3/4/5 TEAEs (in vivo): 299
Number of TEAEs (in vivo): 1969
Number of patients with any TEAE leading to a dose interruption/delay (in vivo): 75 n (%)
Number of patients with any TEAE leading to a dose reduction (in vivo): 0 n (%)
Number of patients with any serious TEAE (in vivo): 89 n (%)
Number of serious TEAEs (in vivo): 147
Treatment-emergent AEs that led to discontinuation (in vivo): 20 (6.7) n (%)
anemia, patients (in vivo): 25%
asthenia, patients (in vivo): 2%
constipation, patients (in vivo): 15%
decreased appetite, patients (in vivo): 15%
fatigue, patients (in vivo): 17%
nausea, patients (in vivo): 18%
pyrexia, patients (in vivo): less than 1%
vomiting, patients (in vivo): 16%
OS HR, cemiplimab vs individual IC chemotherapy [4, 8]: HR; 0.76
PFS HR, cemiplimab vs individual IC chemotherapy [4, 8]: HR; 0.73
OS HR, cemiplimab vs individual IC chemotherapy [4, 9]: HR; 0.69
PFS HR, cemiplimab vs individual IC chemotherapy [4, 9]: HR; 0.77
OS HR, cemiplimab vs individual IC chemotherapy [4, 10]: HR; 0.71
PFS HR, cemiplimab vs individual IC chemotherapy [4, 10]: HR; 0.70
OS HR, cemiplimab vs individual IC chemotherapy [4, 11]: HR; 0.78
PFS HR, cemiplimab vs individual IC chemotherapy [4, 11]: HR; 0.90
OS HR, cemiplimab vs individual IC chemotherapy [4, 12]: HR; 0.77
PFS HR, cemiplimab vs individual IC chemotherapy [4, 12]: HR; 1.21
OS, PFS and ORR versus each IC chemotherapy treatment ([4]; gemcitabine, pemetrexed, vinorelbine, topotecan, irinotecan subgroups): improvements with cemiplimab versus each IC chemotherapy treatment
Median OS (95% CI) [4, 13]: 10.7 (9.2-13.3) months
Median PFS (95% CI) [4, 13]: 2.8 (2.6-4.3) months
ORR [4, 13]: 17.6%
Median OS (95% CI) [4, 14]: 15.8 (11.2-NE) months
Median PFS (95% CI) [4, 14]: 6.9 (1.9-13.8) months
ORR [4, 14]: 23.1%
objective response rate among cervical cancer patients enrolled in the phase I study ([5]; 4/23 combined: dose escalation plus expansion cohorts): 17%
responding patients in expansion cohorts ([5]; both expansion cohorts combined): 2/20
NE (not evaluable), n (%) ([5]; includes missing and unknown tumor response, n = 10 per cohort): 1 n (%)
ORR, % (95% CI) ([5]; investigator assessment, RECIST 1.1, n = 10 per cohort): 10.0%
Partial response, n (%) [5, 15]: 1 n (%)
Progressive disease, n (%) [5, 15]: 5 n (%)
Stable disease, n (%) [5, 15]: 3 n (%)
Kaplan-Meier estimation of median OS ([5]; n = 10 per cohort): 10.3 months
Kaplan-Meier estimation of median PFS ([5]; n = 10 per cohort): 1.9 months
patients with best response of stable disease ([5]; n = 10 per cohort): 30%
Disease control rate, % (95% CI) ([5]; objective response or stable disease, n = 10 per cohort): 40.0%
patients with partial response ([5]; one patient in each cohort of 10): 10%
DOR (duration of response) ([5]; one responder in each group): 11.2 months
Observed time to response ([5]; one responder in each group): 1.8 months
Durable disease control rate, % (95% CI) ([5]; without progression for at least 16 weeks (105 days), n = 10 per cohort): 20.0%
